Test results published in patent US11781101B2, “3D-printed models of biological microenvironments” (Regents of the University of Minnesota, priority 2018, dated 2023).

Legend:
[1] = test system: RFP-expressing HUVEC cells; experiment: 3D-printed directional cell migration chamber, EGF capsules, HUVEC; type: cell-based, human; conditions: EGF capsules sequentially ruptured over 10 days
Description: (§1) FIG. 21 is a graphical representation of relative selective directed migration of A549 tumor cells, M4A4 tumor cells, and non-tumor HUVEC cells of FIGS. 20A and 20B in response to laser rupture of the EGF-containing programmable release capsules within an example cell migration chamber in accordance with examples of this disclosure. FIG. 21 illustrates distributions of GFP-A549s, GFP-M4A4s, and RFP-HUVECs on day 10, showing the selective directed migration of tumor cells but not HUVECs (mean±s.d., n=4 per group). Scale bar: 500 μm.

[2] = test system: GFP-A549 lung cancer cells; experiment: 3D-printed directional cell migration chamber, EGF capsules, A549; type: cell-based
Description: In the example experiment illustrated in FIG. 14, a droplet of fibrin loaded with GFP-A549 lung cancer cells 1400 was printed between linear arrays of chemoattractant capsules 1404 (right) and blank control capsules 1402 (left). The printed droplet defined the primary site of the tumor cells 1400. To generate a long-lasting EGF gradient, capsules 1402 and 1404 were ruptured sequentially at 2-day intervals, starting with the capsule 1408A closest to the cell 1400. Concomitantly, a corresponding control capsule 1408B was also ruptured. The resulting EGF gradient and GFP-A549 response to the gradient is discussed below with respect to FIGS. 15A-17.
FIG. 15B is panoramic fluorescence images illustrating distribution of the GFP-expressing A549 cells of FIG. 15A over time during days 6-10 post-laser rupture of the EGF-containing programmable-release capsules of FIG. 15A. […]
FIG. 16 is a graphical representation of cellular fluorescence intensity of example EGF-expressing A549 cells vs time, with and without EGF release from example programmable-release capsules within a cell migration chamber in accordance with examples of this disclosure. […] The cellular growth rates were first quantitatively compared between samples with and without laser-triggered release of EGF by directly analyzing the fluorescence intensity of GFP-expressing cells. […]

[3] = test system: GFP-expressing M4A4 cells (a melanoma cell line); experiment: 3D-printed directional cell migration chamber, EGF capsules, M4A4; type: cell-based; conditions: EGF capsules sequentially ruptured over 10 days
Description: as §1

[4] = test system: A549 cells in HUVEC-lined conduit; experiment: Vascularized extravasation model, EGF capsules; type: cell-based; conditions: EGF gradients from ruptured capsules, fibroblast-laden gel, by day 4
Description: FIG. 24A is confocal images of a top view and a side view of a representative microchannel lined by HUVECs within a fibrin gel, such as in the context of the example 3D-printed culture chamber of FIG. 23. FIG. 24B is a fluorescence image of a representative microchannel lined by HUVECs and perfused by fluorescent fluid. In the example of FIG. 24A, a microchannel was created using the pin-molding technique within the fibrin gel of the culture chamber. […]
FIG. 26A is fluorescence images of a conduit of an example vascularized 3D-printed culture chamber illustrating guided extravasation of A549s and subsequent metastases generated over time on days 0 and 2 following the programmable release of EGF from EGF-containing programmable release capsules in accordance with examples of this disclosure. FIG. 26B is fluorescence images of the conduit of FIG. 26A illustrating guided extravasation of A549s and subsequent metastases generated over time on days 4 and 6 following laser-triggered rupture of EGF-containing programmable-release capsules (inset: fluorescence image showing transendothelial formation of metastasis). […]
FIG. 27 is fluorescence images showing the vascularized extravasation model of FIG. 26 after A549s were injected within the conduit without rupture of EGF capsules. […]

B1: EGF: EGF, a chemoattractant of carcinoma cells, encapsulated in programmable-release capsules (protein, UniProt P01133 23-1207, looked up)
Pro-epidermal growth factor: PQHWSCPEGTLAGNGNSTCVGPAPFLIFSHGNSIFRIDTEGTNYEQLVVDAGVSVIMDFHYNEKRIYWVDLERQLLQRVFLNGSRQERVCNIEKNVSGMAINWINEEVIWSNQQEGIITVTDMKGNNSHILLSALKYPANVAVDPVERFIFWSSEVAGSLYRADLDGVGVKALLETSEKITAVSLDVLDKRLFWIQYNREGSNSLICSCDYDGGSVHISKHPTQHNLFAMSLFGDRIFYSTWKMKTIWIANKHTGKDMVRINLHSSFVPLGELKVVHPLAQPKAEDDTWEPEQKLCKLRKGNCSSTVCGQDLQSHLCMCAEGYALSRDRKYCEDVNECAFWNHGCTLGCKNTPGSYYCTCPVGFVLLPDGKRCHQLVSCPRNVSECSHDCVLTSEGPLCFCPEGSVLERDGKTCSGCSSPDNGGCSQLCVPLSPVSWECDCFPGYDLQLDEKSCAASGPQPFLLFANSQDIRHMHFDGTDYGTLLSQQMGMVYALDHDPVENKIYFAHTALKWIERANMDGSQRERLIEEGVDVPEGLAVDWIGRRFYWTDRGKSLIGRSDLNGKRSKIITKENISQPRGIAVHPMAKRLFWTDTGINPRIESSSLQGLGRLVIASSDLIWPSGITIDFLTDKLYWCDAKQSVIEMANLDGSKRRRLTQNDVGHPFAVAVFEDYVWFSDWAMPSVMRVNKRTGKDRVRLQGSMLKPSSLVVVHPLAKPGADPCLYQNGGCEHICKKRLGTAWCSCREGFMKASDGKTCLALDGHQLLAGGEVDLKNQVTPLDILSKTRVSEDNITESQHMLVAEIMVSDQDDCAPVGCSMYARCISEGEDATCQCLKGFAGDGKLCSDIDECEMGVPVCPPASSKCINTEGGYVCRCSEGYQGDGIHCLDIDECQLGEHSCGENASCTNTEGGYTCMCAGRLSEPGLICPDSTPPPHLREDDHHYSVRNSDSECPLSHDGYCLHDGVCMYIEALDKYACNCVVGYIGERCQYRDLKWWELRHAGHGQQQKVIVVAVCVVVLVMLLLLSLWGAHYYRTQKLLSKNPKNPYEESSRDVRSRRPADTEDGMSSCPQPWFVVIKEHQDLKNGGQPVAGEDGQAADGSMQPTSWRQEPQLCGMGTEQGCWIPVSSDKGSCPQVMERSFHMPSYGTQTLEGGVEKPHSLLSANPLWQQRALDPPHQMELTQ
modifications: Pro-epidermal growth factor encapsulated in programmable-release capsules
How did the “migratory response of HUVECs to EGF gradients” value [1] turn out when B1 was run?
The value was “negative migratory response”.

And the “maximum cell velocity of leading A549 cells” value ([2]; guidance of EGF cues from sequentially laser-ruptured capsules in fibrin gel, x-direction displacement, mean±s.d., n=4)?
Its value is 15.48±1.05 μm/h.

And the “growth (proliferation) of tumor cells, cellular fluorescence intensity” value ([2]; laser-triggered EGF release vs no release, 10 days)?
Its value is “accelerated”.

What about the “directed migration of M4A4 cells” value [3] of the same molecule?
Its value is “exhibited directional movement”.

And the “transendothelial behavior (extravasation) of A549s” value [4]?
Its value is “cells underwent both extravasation and proliferation”.
